Source: patent EP4617282A1 (Institute Of Pathogen Biology, Chinese Academy Of Medical …, dated 2024)

Tests used:
[1] = biological target: HIV-1JRFL Env (envelope glycoprotein of the HIV-1JRFL pseudovirus) (HIV-1 (strain JRFL)); assay: cell-based or functional assay
[2] = biological target: HIV-1NL4-3 Env (envelope glycoprotein of the HIV-1NL4-3 pseudovirus) (HIV-1 (strain NL4-3)); assay: cell-based or functional assay

B1: lipopeptide LP-98 (peptide)
peptide: Ac-YEQKIEELLKKAEEQQKKNEEELKKLEK-NH2
modifications: not fully specified (residue 28)
- average IC50, inhibition of pseudovirus infection of TZM-bl cells (luciferase) [1]: 2.58 pM
- average IC50, inhibition of pseudovirus infection of TZM-bl cells (luciferase) [2]: 1.07 pM

B2: lipopeptide LP-101 (peptide)
peptide: Ac-EIEELEKKIEELLKKAEEQQKKNEEELKKLEK-NH2
modifications: not fully specified (residue 32)
- average IC50, inhibition of pseudovirus infection of TZM-bl cells (luciferase) [1]: 2.26 pM
- average IC50, inhibition of pseudovirus infection of TZM-bl cells (luciferase) [2]: 0.46 pM

B3: lipopeptide LP-104 (peptide)
peptide: Ac-WEEWEKKIEELEKKIEELLKKAEEQQKKNEEELKKLEK-NH2
modifications: not fully specified (residue 38)
- IC50, inhibition of pseudovirus infection of TZM-bl cells (luciferase) [1]: 60.2 pM
- fold reduction of antiviral activity as compared to lipopeptide LP-101 [1]: ~27 fold
- IC50, inhibition of pseudovirus infection of TZM-bl cells (luciferase) [2]: 14.5 pM
- fold reduction of antiviral activity as compared to lipopeptide LP-101 [2]: ~32 fold
